Laboratory results reported in patent publication US11795488B2, “Methods for enzymatic peptide ligation” (NANYANG TECHNOLOGICAL UNIVERSITY, priority 2016, dated 2023).
Positions count from the first letter of the chain named. Where two headings read alike, the source gives them in different places.

Assays:
[1] = test system: OaAEP1; assay: Trans-activation of inactive mutants by wild type OaAEP1; format: biochemical, Oldenlandia affinis
Source text: (a) Schematic illustration of the His-Ub-OaAEP1 construct used with the boundaries of the three regions of the protein indicated and the deduced activation segment. 6-His tag and Ubiquitin tag followed by OaAEP1 (24-474) was synthesized and inserted into pET28b vector. After Ni-NTA affinity purification, about half of Ub-AEP-FL lost the N-terminal fusion tags and was purified in AEP-FL form (53-474), which was eventually crystallized. The enzymatic active form of OaAEP1b, AEP-holo (53-347/351) is the acidic induced self-cleavage product of AEP-FL, which lost the C-terminal auto inhibitory cap domain. (b) SDS PAGE analysis of fractions obtained over the course of chromatographic purification and of dissolved crystals. (c) Size-exclusion chromatography profiles of OaAEP1 before and after activation showing Ub-AEP-FL and AEP-FL heterodimer and the AEP-holo monomer. The elution volumes of standard proteins are indicated for comparison. (d) SDS PAGE analysis of OaAEP1 pH-dependent activation. The activation was performed for 3 hours, and the peak of activation is in between pH 3.4 to 4.
OaAEP1 was cloned and expressed in E. coli as an ubiquitin fusion protein as reported earlier (FIG. 2) (Harris, K. S., et al., Nat Commun, 2015. 6: p. 10199). Using ion exchange and size exclusion chromatography (SEC), sufficient amounts of pure protein suitable for enzymatic and structural analysis were obtained (FIG. 2B). […]
Since the crystallization conditions are compatible with OaAEP1 activation, the present crystal structure is likely to have captured one of the conformational states occurring along the activation pathway. […] The role of Gln347 in OaAEP1 auto-activation was particularly assessed by mutating this residue to Ala, and whether enzyme activation was abolished was examined. […]

[2] = test system: OaAEP1; assay: Self-activation (acid-induced self-cleavage) of OaAEP1 and mutants, SDS PAGE; format: biochemical, Oldenlandia affinis; details: for self-activation (auto-activation): acidic pH
Description: To self-activate OaAEP1, 1 mM EDTA and 0.5 mM Tris (2-carboxyethyl) phosphine hydrochloride were added to the immature protein and the pH of the solution was adjusted to 4 with glacial acetic acid. Fractions containing the protein (as analyzed by SDS-PAGE) were pooled and then incubated for 3 to 16 hours at room temperature or 37° C. Protein precipitation at this pH allowed removal of the bulk of the contaminating proteins by centrifugation. Activated proteins were concentrated by ultracentrifugation using a 50 kDa cutoff concentrator (Sartorius) and stored at −80° C.
OaAEP1 was cloned and expressed in E. coli as an ubiquitin fusion protein as reported earlier (FIG. 2) (Harris, K. S., et al., Nat Commun, 2015. 6: p. 10199). Using ion exchange and size exclusion chromatography (SEC), sufficient amounts of pure protein suitable for enzymatic and structural analysis were obtained (FIG. 2B). At the neutral pH of purification (pH=7.4), OaAEP1 was mainly present as a heterodimer, where both monomers are in their zymogenic form, but only one monomer had retained in addition the ubiquitin and N-terminal His-tag, while the fusion moiety was cleaved in the other monomer (labeled as “His-Ub-AEP-FL” and “AEP-FL” in FIG. 2B and FIG. 2C). This heterodimer was subjected to crystallization trials for structural studies (see below). In agreement with reference (Harris, K. S., et al., Nat Commun, 2015. 6: p. 10199), activation of OaAEP1 was optimum for pH values in the range of 3.4-4.0 (FIG. 2D). Following activation, OaAEP1 converts to a monomer in solution according to SEC analysis (“AEP-holo” in FIG. 2C). To test the ability of the protein to be activated in trans, the catalytic residue Cys217 was mutated into Ser217.
Since the crystallization conditions are compatible with OaAEP1 activation, the present crystal structure is likely to have captured one of the conformational states occurring along the activation pathway. To determine whether Gln347 belongs to the segment recognized and cleaved during self-activation, mutagenesis experiments targeting region 346-351 of the OaAEP1 protein were performed (FIG. 4C). The role of Gln347 in OaAEP1 auto-activation was particularly assessed by mutating this residue to Ala, and whether enzyme activation was abolished was examined. Only little impact was found on the mutant enzyme activation (FIG. 4C). Residues Asn346, Asp349 and Asp351 that are next to Gln347 were then targeted. […] Thus, trans-activation requires the presence of at least one of the four Asx/Gln residues (with a slight preference for Asp349 or Asp351) found in this segment of the linker.

[3] = test system: peptide substrate; assay: Comparison of cyclization efficiency of gate-keeper Cys247 mutants (MALDI-TOF MS); format: biochemical
Description: Native and modified amino acids were purchased from Sigma-Aldrich (USA). All peptides used in this manuscript were synthesized in-house using the solid-phase method and HPLC purified. Cyclization assays were performed in 50-μl reaction mixtures containing 20 mM phosphate buffer, ligases (5 to 700 nM) and peptide substrates (10 to 300 μM). Each reaction was performed in triplicate at 37° C. and quenched by adding 5 μl of 1 M HCl solution. The peptides were separated by using a reversed-phase C18 analytical column (150×2.1 mm, Vydac) with a linear gradient from 10% to 50% acetonitrile over 15 min on a Nexera UHPLC system (Shimadzu). For kinetic analysis, the concentrations of WT OaAEP1, mutant OaAEP1, and butelase 1 were fixed at 700 nM, 50 nM, and 20 nM, respectively. The cyclization velocities were calculated by converting the HPLC-peak areas of remained linear precursors or the cyclized products into concentrations. The identity of each HPLC peak was analyzed by MALDI-TOF MS (ABI 4800 MALDI TOF/TOF). The velocities were input into GraphPad Prism (GraphPad Software, San Diego) to obtain the Michaelis-Menten curve and the kinetic parameters (kcat and Km). Comparison for the cyclization efficiency of various OaAEP1 mutants were performed in a volume of 20 μl of the reaction mixture and analyzed by MALDI-TOF MS after 10 mins or 1 hour ligation reaction.
The pre-ligation conformation of OaAEP1 captured in the present structure was then analyzed to identify several key features that could differentiate an AEP protease from an AEP-like ligase. […] In contrast to AEP proteases, the surface of OaAEP1 facing the catalytic Cys217 appears to be more widely open. Three cysteine residues (Cys247, Cys250, Cys264) are aligned along a shallow cleft at the surface of the enzyme (FIGS. 3C and 3E). Unlike the surface of AEP proteases that contains several bulges, both butelase 1 (using a homology model based on OaAEP1b) and OaAEP1 have residues with smaller side-chains along this patch. A disulfide bond is formed between Cys250 and Cys264, which are conserved in AEP-like ligases butelase 1 and OaAEP1b. This covalent bond is likely to stabilize the local structure and provide an adequate surface allowing the approach of an N-terminal amine incoming group. Conversely, the corresponding surface patch of AEP proteases (PDB: 4AWA) is lined with residues having bulky side-chains like Tyr (FIG. 3E) blocking this channel. It was therefore hypothesized that residue Cys247 which is located at the extremity of the substrate channel is likely to function as a final nucleophile filter (or “gate-keeper”), allowing attack from the N-terminal amine to complete the ligation reaction. […]

[4] = Proteolytic and protein ligation activity of AEP_C13C04; format: biochemical
Source text: Based on the prediction of the sequence alignment, AEP_C13C04 contained the conserved structural motif identical to Quicklase (247-264). […] The cDNA of AEP_C13C04 was then subsequently synthesized and subcloned into pet28b in a similar way as Quicklase.

B1: Cys217Ser (protein)
chain: MVRYLAGAVLLLVVLSVAAAVSGARDGDYLHLPSEVSRFFRPQETNDDHGEDSVGTRWAVLIAGSKGYANYRHQAGVCHAYQILKRGGLKDENIVVFMYDDIAYNESNPRPGVIINSPHGSDVYAGVPKDYTGEEVNAKNFLAAILGNKSAITGGSGKVVDSGPNDHIFIYYTDHGAAGVIGMPSKPYLYADELNDALKKKHASGTYKSLVFYLEASESGSMFEGILPEDLNIYALTSTNTTESSWCYYCPAQENPPPPEYNVCLGDLFSVAWLEDSDVQNSWYETLNQQYHHVDKRISHASHATQYGNLKLGEEGLFVYMGSNPANDNYTSLDGNALTPSSIVVNQRDADLLHLWEKFRKAPEGSARKEEAQTQIFKAMSHRVHIDSSIKLIGKLLFGIEKCTEILNAVRPAGQPLVDDWACLRSLVGTFETHCGSLSEYGMRHTRTIANICNAGISEEQMAEAASQACASIP
- activation in trans by wild type OaAEP1 [1]: could be rescued in trans by addition of only 10% of wild type OaAEP1
- activation and ligase activity of active site mutant [2]: only displayed background level activation and ligase activity

B2: Asn346Ala-Asp349Ala-Asp351Ala (protein)
chain: B1 chain with S217C, N346A, D349A, D351A
- self-activation (auto-activation) [2]: can still be activated
- self-activation (auto-activation) ([2]; listed as A3): more severe loss of function phenotype

B3: Cys247Gly: OaAEP1 gate-keeper mutant Cys247 to Gly (protein)
chain: B1 chain with S217C, C247G
- alternative reaction when N-terminal amine is not available ([3]; N-terminal amine group acetylated): catalyzes peptide hydrolysis as alternative reaction
- ligase activity compared to WT OaAEP1 ([3]; gate-keeper position 247 mutants): negatively affects the ligase activity

B4: Asp349Ala-Asp351Ala (protein)
chain: B1 chain with S217C, D349A, D351A
- self-activation (auto-activation) [2]: can still be activated

B5: Asn346Ala-Gln347Ala (protein)
chain: B1 chain with S217C, N346A, Q347A
- self-activation (auto-activation) [2]: can still be activated

B6: Asn346Ala-Gln347Ala-Asp349Ala-Asp351Ala (protein)
chain: B1 chain with S217C, N346A, Q347A, D349A, D351A
- activation in trans by wild type OaAEP1 [1]: could not be rescued in trans
- self-activation (auto-activation) [2]: most significantly impaired auto-activation activity
- self-activation (auto-activation) ([2]; listed as A4): more severe loss of function phenotype

B7: Cys217Ala (protein)
chain: B1 chain with S217A
- activation in trans by wild type OaAEP1 [1]: trans-cleavage and activation of most of the AEP-FL Cys217Ala after 18 hours
- self-activation (auto-activation) [2]: devoid of self-activation activity

B8: AEP_C13C04: Peptidase C13, legumain [OMO86616.1] from Corchorus olitorius, SEQ ID NO:8 (protein, listed as Corchorus olitorius)
chain: MTRLVAGVILLLLSVTGIASAGRDATGDVLRLPSEASRFFRPSDDDEVGTRWAVLIAGSNGYWNYRHQADVCHAYQLLKKGGLKDENIIVFMYDDIAFNYENPRQGIIINSPHGDDVYQDVPKDYTGEEVTVHNFLAAILGNKTAIKGGSGKVVDSGPNDHIFIYYTDHGGPGVLGMPTYPYLYADELIDTLKKKHASGTYKSLVFYLEACESGSIFEGLLPEGLNIYATTASNADESSWGTYCPGEYPSPPPEYETCLGDLYSVAWMEDSDLHNLRTETLHQQYELVKRRTLNGNSAYGSHVMQYGDVGLAKEHLFLYLGTNPANDNFTFIDENSLQPPAKAVNQRDADLVHFWDKYRKAPDGSVRKVEAQKQVVEAMSHRMHVDNSIQLIGKLLFGIERGADVLKTVRPAGQPLVDDWKCLKSMVRTFETHCGSLAQYGMKHMRSIANICNAGIQTEQMAEASSQACVSIPSGQWSSIQKGFSA
- byproducts [4]: significant byproducts of proteolytic reactions
- proteolytic and protein ligation activities [4]: exhibited both proteolytic and protein ligation activities
- proteolytic and protein ligation activities ([4]; listed as AEP_C13CO4): is a peptide ligase having the activity of OaAEP1 Cys247Ala
- enzymatic catalytic efficiency compared with Quicklase ([4]; wild type AEP_C13C04): much slower
